Experiment in all cases: EMSA; E. coli tRNA; RNA EMSA: 50 mM HEPES pH 8, 1 mM DTT, 100 mM NaCl, 0.01% BSA, 2% glycerol, 50 ng/uL E. coli tRNA, 0.25 nM RNA, 20 min on ice then 10 min 25 C; dsDNA EMSA: same
(In general: In EMSA bound probe runs differently from free probe, usually more slowly.)

One data set addresses GST-TRF1 (human, UniProt P54274 1-439). The conditions noted are these: protein: recombinant, tags: N-terminal GST, chain copies: 2, label: 5'-32P.
The target of a further data set is T1, GST-B (hB) (human, UniProt Q15554 43-86).
T1 chain: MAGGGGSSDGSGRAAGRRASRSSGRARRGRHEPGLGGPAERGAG
Conditions: protein: recombinant, tags: N-terminal GST, label: 5'-32P.

The target of another data set is GST-TRF2 (human, UniProt Q15554 43-542). Conditions: protein: recombinant, tags: N-terminal GST, chain copies: 2, label: 5'-32P.
The next data set deals with GST-hBL (human, UniProt Q15554 1-86). Conditions: protein: recombinant; tags: N-terminal GST; label: 5'-32P; G4-forming.
The target in the next data set is T2, GST-A (hA) (human, UniProt P54274 1-66).
T2 sequence: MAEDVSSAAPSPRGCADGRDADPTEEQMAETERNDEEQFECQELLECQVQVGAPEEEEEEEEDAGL
Conditions: protein: recombinant; tags: N-terminal GST; label: 5'-32P; G4-forming.

On to UUACGGUUACGGUUACGGUUACGGUUACGG (ssRNA) [MUT1 (UUACGG)5], for which the binding result with GST-TRF1 (not G4-forming), in the data set with GST-B (hB) (not G4-forming) and with GST-TRF2 (not G4-forming) was “no binding” each time.
For the molecule UUAGGGUUAGGGUUAGGGUUAGGGUUAGGG (structured_RNA) [TERRA (UUAGGG)5], the binding result in the data set with GST-hBL is reported as “binds”; with GST-A (hA), “no binding”; with GST-TRF1 (G4-forming), “binds”; with GST-B (hB) (G4-forming), “binds”; with GST-TRF2 (G4-forming), “binds”.
In the case of AAAGGGAAAGGGAAAGGGAAAGGGAAAGGG (structured_RNA) [MUT4 (AAAGGG)5], the binding result with GST-TRF1 (G4-forming), in the data set with GST-B (hB) (G4-forming) and with GST-TRF2 (G4-forming) was “binds” each time.
On to AUAGGGAUAGGGAUAGGGAUAGGGAUAGGG (structured_RNA) [MUT3 (AUAGGG)5], for which the binding result in the data set with GST-TRF1 (G4-forming), in the data set with GST-B (hB) (G4-forming) and in the data set with GST-TRF2 (G4-forming) was “binds” throughout.

B1: TERRA (UUAGGG)12 (structured_RNA)
RNA: UUAGGGUUAGGGUUAGGGUUAGGGUUAGGGUUAGGGUUAGGGUUAGGGUUAGGGUUAGGGUUAGGGUUAGGG
With B1, the binding result in the data set with GST-B (hB) is “binds”.
With UUACCGUUACCGUUACCGUUACCGUUACCG (ssRNA) [MUT2 (UUACCG)5], the binding result with GST-TRF1 (not G4-forming), with GST-B (hB) (not G4-forming) and with GST-TRF2 (not G4-forming) was “no binding” throughout.
